Measured values: a protein production outcome set (Wang et al. 2014)

Experiment: label from the status in PepcDB records
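Also: failed if final PepcDB status was selected cloned or expressed and not failed if soluble or beyond.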

Sequence | protein production
MDAPKAGYAFEYLIETLNDSSHKKFFDVSKLGTKYDVLPYSIRVLLEAAVRNCDGFLMKKEDVMNILDWKTKQSNVEVPFFPARVLLQDFTGIPAMVDFAAMREAVKTLGGDPEKVHPACPTDLTVDHSLQIDFSKCAIQNAPNPGGGDLQKAGKLSPLKVQPKKLPCRGQTTCRGSCDSGELGRNSGTFSSQIENTPILCPFHLQPVPEPETVLKNQEVEFGRNRERLQFFKWSSRVFKNVAVIPPGTGMAHQINLEYLSRVVFEEKDLLFPDSVVGTDSHITMVNGLGILGWGVGGIETEAVMLGLPVSLTLPEVVGCELTGSSNPFVTSIDVVLGITKHLRQVGVAGKFVEFFGSGVSQLSIVDRTTIANMCPEYGAILSFFPVDNVTLKHLEHTGFSKAKLESMETYLKAVKLFRNDQNSSGEPEYSQVIQINLNSIVPSVSGPKRPQDRVAVTDMKSDFQACLNEKVGFKGFQIAAEKQKDIVSIHYEGSEYKLSHGSVVIAAVISCTNNCNPSVMLAAGLLAKKAVEAGLRVKPYIRTSLSPGSGMVTHYLSSSGVLPYLSKLGFEIVGYGCSTCVGNTAPLSDAVLNAVKQGDLVTCGILSGNKNFEGRLCDCVRANYLASPPLVVAYAIAGTVNIDFQTEPLGTDPTGKNIYLHDIWPSREEVHRVEEEHVILSMFKALKDKIEMGNKRWNSLEAPDSVLFPWDLKSTYIRCPSFFDKLTKEPIALQAIENAHVLLYLGDSVTTDHISPAGSIARNSAAAKYLTNRGLTPREFNSYGARRGNDAVMTRGTFANIKLFNKFIGKPAPKTIHFPSGQTLDVFEAAELYQKEGIPLIILAGKKYGSGNSRDWAAKGPYLLGVKAVLAESYEKIHKDHLIGIGIAPLQFLPGENADSLGLSGRETFSLTFPEELSPGITLNIQTSTGKVFSVIASFEDDVEITLYKHGGLLNFVARKFS | not failed
CDLERYPLTDLSEETFWNSESNAELALTSLYRGSLTDGVEYNPSDWWSYHGMIMMEHLSDNAFDRRGENNPFFKISSGNLTADNAFIKRYWETSYKRIGYCNRFLVGIQNSSESEKKTRMIAEARFLRATQYFYLASYFKNVPLVENVLTGEEANNVTKTSQADILKWCVTEFTAAAADLPRFSAIPAGEAGRACKQAALAFLGRTCMLQKDWKSGAKAFHDIMELGDNAINANYQELFYPSTGTSNKENIFYIQYLENYLGTGLPQHALSAKDGGWSLVNPAADLYESYEFKDGTPFSYDDPRYDPSNLGKDRDPRLDYTIYYNGAIFMGTEYKMSPDYSAAKKEKLDYTSEASRTGFMMRKYFEESTPINDVQSANGLTPVIRYAEVLLGYLECLVEDNQTITQGILDETINAVRGRASVNMPPVTEVTPAKLREIVRHERRIELAMEGIRYWDIMRWGIAHEVLSQKIWGAPYPGSTQYATTTKEVDPTGNYRWYVGKRAFRNPTDYTWPIPQSEQNINPNLRD | not failed
MAIPSGATGKEPFLPRTLTVLREGYDGGTFFKDLAAGLTVGIVALPLAMAFAIASGTTPERGLFTAIVAGFLISLLGGSRYQIGGPTGAFVIIIFNVIMKHGYDGLVVTTLLAGAMLLVFGLCRFGALIKYIPYPVTTGFTAGIAVLIFSQQVKDFLGLSMQSVPPDFFEKWQAYIHNAATFDPATCGIAFLALGAIILTRKTIPRIPGPVVGVVLASLTVWALGLDVETIGSRFGGIPTELPTFTLPTVTLERVRQLLPDAMTIALLAGIESLLSCVVADGMTGDKHNSNVELAAQGAANIASVMFGGIPATGAIARTVTNIRSGGRTPVAGMIHAAVLVGFILYLAPLASFIPLASLAAVLMVVAWDMSEMHKFLRLLHAPKSDVLVMCLTFALTVVIDLTVAVYVGVMLASLLFMRRMSEVTQICTCLDGEATKVQGRETAELDVPEGVKVYEIDGPFFFGVADRFQNVLAALDRQPEVFILRMRKVSTLDSTAVNALEVFWRKCRSDGTQLLLSGVRETMRTTLRRMGTLSLIGEGNICENIDAALARAGQVLAERREAEDRPQ | failed
MAGDYHRGEMDIQEQAATYDAFGKMTKWGSLAISVLLLFFTLLFCTSAGFIGSAIASIVLLVLGVVLLKEKPTQSH | failed
MAYDNRAVVRKVLLITLLLNLFVMGLKAFVGYLTGSLSLLADALHSVTDSANNILGLFASSFSSPYPDREHPYGHHKFEAVGALGIAAFLGIACFEILQGAIERILKGGAPVRISPPELWLLLIVLGVNIFVAFYERNEGKRVGSQILIADATHTMSDVWVTISVIFGLIGVWLGYQWLDIVLAFPVALLVFWSGWSVLKENLPWLVDQMAIAPEAIHAIAVAVPGVINCHDIASRGVLGRQIFMEMHLIVDAPDVETAHRITEEVERRLEERFSPVRIIIHVEPPNYESEQISFETGSK | failed
SASYLILRNYRNSIEGLIEKGIRDEEFIPYYQPIVDSRTQEVVGYEVLLRWQKGHQLVPPSLFISAAEDSGLVVKITNQLIQQVHRDLAQIPAPRWVSINVVADHLEQHHLTHLLEELHWPYSERLKFELTERVPIKAMTQAQEEVFYLLKKGYQFKIDDFGTGYGGFAYLQNLQISSIKIDKMFVDTINTHDVKISVLDSIIASAQGGNIEVIAEGVEHQYQVDYLAERNVFWIQGYFYAKP | failed
MTENSRKTATELFEFLDGLGISHTTKQHEPVFTVAESQSLRDLIPGGHTKNLFVKDKKDQYFVLTVEENAVVDLKSVHKTIGAASRVSFGRPEKMLEYLGVVPGSVTVFGAINDTARQVTFVLDSDLLENELVNGHPLSNDQTTTIASKDLIRFLEATGHAPLVLKVSE | not failed
MDTAEIEADQRALQHASVEGTTETPGNAQSSTNDDVIKATVDQIVAQILSESAERKATEEGKTGKAADDVKNTPESGEDANKAAAKEPSGTPVAASSEATVPAPGSASSSNSPLPGTPPKYSNPHNLTIGARLEALSVEGNWLPARIVEVNETEQTLLVRFERNHKLKVSPSTSGSFQEWMAIKSERLRQRLSNRVLPVFELDEKCMARWSGPRKFPGTIRKLLGNDTYEVLFDDGYVKNVRAVHMNKMPKQLPPVQVAEEGASKSPTPVGTPVSSAPVAPKRASTGSLGGSSGSSGSKKSKCAPQRRDWPLLDMASLDIASLGLPEIPHDGEWTCHWVNDQPIGTEGFLIVGEHQKPTVIVQDWRLPPGWIKHMYQRSNVLGKWDVILVSPSGKRFRSKSDLKLFLESQNLVYNPDVYDFSIHRRRAKDINAYVYTHGYNPQPPPKPRPMDVSMNSTLDQSITSQHSLPSTPMPVKESQYMEAPVASLMPPAELMSPQTQPADETKPKIEAEILEASEGGTSQLMLADPHVVENGFAFIGGLKVKIQDNLYVCPREDCAKTYRKEDFLLIHIRHYHKEFAEHVSHCPKMQELAVKRTHPSSIDQVEAVPKNQIPNQQFFAKMHQQDLQQSRSFKRQSVSATATSSTPSDITPTKALLSPKMEPPSVSPTVESGIKQEDVSLDAGPTQSFNPSLSRSCKRARLSPSKRPSGSRKSNRQRSQRRPILSDNPAGHGLTEQDVEETRQSFNTPTPDTRIDSKKRRSGAATTPISSIDSPAMGDSVSTPSSNDQTDINAALAPPPAETLSKAPQYIKENGELIRIVRMRQEEIINCICEYGEEDGLMIQCELCLCWQHGACNGIVKEADVPDKYVCYICRNPQRGRDSMRFKHDQDWLFEGKLPVAAYHTANPQATKQFELLKRSHTLTGNLLDAKRSMHSLLVKINIARNRCHPKLYLWAKKWDEDNLDSTALTPVKRAKLEAPDLPNVPQPEAAIDPEECQYRLIEHIKVQQSLVLDRLNDIEAEMDELEKEDTLDDLKDADISTTKEALATFIKELETMKRLAKLNQVANMKQTLRDSATSK | failed
LSIPEDYQARLQPNRVEGSYPLVRMEFTGATVDAPLMSQISRKYNIDVSILSSDLDYAGGVKFGMMVAELFGNEQDDSAAIEYLREHNVKVEVLGYVL | not failed
MSKPEFIARQGRKPTGWLGHIVARVMARETRPENDRALSFLDLADGDSLIDIGCGHGETLFQADRIVRLSGSVGVDFSEVMLKRARARNRDAVWDTRMAFHCADTAALPFPDKRFGKALSVHTIYFWPNPAAHLAEAFRVLRRGGRFLFCYRSTADRRAVEEFPDTVYRFPSVQEVEEKLKLVGFLGPETTTEDIKGRLTHWSIAEKPLEHHHHHH | not failed
MAQKLEAKGGEMGDVWDDGVYENVRKVYVGQAQYGIAFVKFEYVNGSQVVVGDEHGKKTELGVEEFEIDADDYIVYVEGYREKVNDMTSEMITFLSIKTFKGKTSHPIEKRPGVKFVLHGGKIVGFHGRSTDVLHSLGAYVSLSSTIKLLGKWIKVEQKGEGPGLRCSHGIAQVGNKIYSFGGEFTPNQPIDKHLYVFDLETRTWSISPATGDVPHLSCLGVRMVSVGSTLYVFGGRDASRQYNGFYSFDTTTNEWKLLTPVEEGPTPRSFHSMAADEENVYVFGGVSATARLNTLDSYNIVDKKWFHCSTPGDSLTARGGAGLEVVQGKVWVVYGFNGCEVDDVHYYDPVQDKWTQVETFGVRPSERSVFASAAIGKHIVIFGGEIAMDPLAHVGPGQLTDGTFALDTETLQWERLDKFGGEEETPSSRGWTASTTATIDGKKGLVMHGGKAPTNDRFDDLFFYGIDSA | not failed
MTEYWVSQGNKWCEFCKIWIQNNPTSIRNHDLGKRHRECVDKKLTDMRERSAAKDKELKKNEKLLQQIEAKATRSYQKDIATAQQVAKANGAPEDGTSDWMLDSASGYYYNQTNGLHYDSQSGFYYSDSIGHWVTQDEAYAAVKTSSGTKVPLVKKPVSSSGAGPSVGKPPGRLVTASLNPKRAVKGAASSVDLGNNKRKRQDEKPKKVSAEEKAALKAREAARKRVEDREKPLLGLYNRPF | failed
SKHAKSFKDDMYLRTEHVVWQKEMLTLARLAAAVDMAAADSKDVANSHIFDAMVNQKIKLQNPEVLKKWLGEQTAFDGKKVLAAYESPESQARADKMQELTETFQIDGTPTVIVGGKYKVEFADWESGMNTIDLLADKVREEQKAAQ | failed
MQFKNTPQRYGVVSAALHWLTALVVYGMFALGLWIVTLSYYDGWYHQAPEIHKSIGILLMMALIVRIIWRLYSPPPVALTSYSRLTRASAAAGHLLLYLLLFAIIISGYLISTADGKPISVFSWFEIPATLTDAGAQADIAGTLHLWFAWSLVIISLSHGVMALKHHFIDKDDTLKRMTGMSSSDYGAQK | failed
MSRMRVLRLRLYGVVFLAVLALLLSLSVAVYQQVFTPAVRIKLEADSLGNQLDPRADVKLRGLLVGEVRAVHADGTKATLDIALKPEYVASIPSDAHARLLPKTLFGEKYVDLVAPARSSARPIRAGDVITQDRTRVGIELQQLMNDLLPLLRTVQPGKLNATLSAFATALEGRGDRIGDNLTRVEDYLHRLNPHLPSLTEDFARLADVAEVYGDAAPDLMEILRNTVTTSRTLVEQRDRLASALTTTATAAGTADDFLDANGDRLITLGRVSRPTLDLFARYSPEYPCLFAGLVREEQASEQAFRGGKMHITLEVVRQQGAYEPGEYPRYDDRSGPNCRDLPHPPVPAPGVHLNDGSTKGSASGGPGGVSATRAEQRSVGSLVAPVLGVPADQVPPVATLLFGPMARGTAVSVA | failed
MLKLLWIALGGSLGALCRYGLSVLARWGLPPTVPWGTLAANLVGCFLIGGLWVLAAQYSFSEELRVFIFTGGIGSLTTFSTYSLESLLLLREGRVWAGLANVLVSNVLGLVLVAIGAGCALFLLGGPVAAFGA | failed
MSLSIVRIDAEDRWSDVVIYNNTLWYTGVPENLDADAFEQTANTLAQIDAVLEKQGSSKSRILDATIFLSDKADFAAMNKAWDAWVVAGHAPVRCTVQAGLMNPKYKVEIKIVAAVEGHHHHHH | not failed
MITRTIRGILKGAAVFLGLAGAIALLHAFGLDSTLDTAWIDSHIRDHGLQGHLLYIGIAGVLTALAVPRQFVSFLGGYAFGAAFGTLWATVGATLGCMLTFFYARFAGQSLVNRRFSHRVARVNAFLSRNPFTMTFIIRCLPVGNNVLTNLIAGVSSIPAVQFFAGSFIGYIPQHFIFALLGSGVHVSPVLRTVTSALLFVLSSVFGYMLYRRYRIDRDLEEPDDQ | failed
MCIQKVIEDKLSSALKPTFLELVDKSCGCGTSFDAVIVSNNFEDKKLLDRHRLVNTILKEELQNIHAFSMKCHTPLEYDKLKSK | not failed
